Measurements from patent US9212226B2, “Amino acid sequences directed against CXCR4 and other GPCRs and compounds comprising the same” (Ablynx N.V., priority 2008, dated 2015).

Columns and labels:
CXCR4 = CXCR4 (Homo sapiens, UniProt P61073); assay: Phage ELISA binding assay on CHO-CXCR4 versus CHO membranes; parameters: expressed in transfected cells; host or cells: CHO cells (membrane preparation); settings: monoclonal phages, CHO-CXCR4 vs CHO membranes
Procedure: FIG. 2. Results from Phage ELISA (as described in example 1.5).
In order to determine binding specificity of the Nanobodies, 15 ul of the produced phage were tested in an Phage ELISA binding assay.
In short, 2 ug in 100 ul PBS of membrane expressing either CXCR4 (CHO-CXCR4) or a non relevant GPCR(CHO) were coated directly on Maxisorp microtiter plates (Nunc) overnight at 4 C. Free binding sites were blocked using 4% Marvel in PBS for 1 h. Next, 15 ul of monoclonal phages was added in 100 ul 1% Marvel PBS for 2 hours. […] Binding specificity (binding to CHO-CXCR4) was determined based on OD values compared to controls (binding to CHO).

CXCR3 = molecular target: T1, CXCR3 (Homo sapiens, UniProt P49682); assay: Binding of [125I]-238D2 / [125I]-238D4 to membranes from HEK293T cells expressing CXCR4 or CXCR3; settings: radiolabelled Nanobody
T1 sequence (P49682 1-368): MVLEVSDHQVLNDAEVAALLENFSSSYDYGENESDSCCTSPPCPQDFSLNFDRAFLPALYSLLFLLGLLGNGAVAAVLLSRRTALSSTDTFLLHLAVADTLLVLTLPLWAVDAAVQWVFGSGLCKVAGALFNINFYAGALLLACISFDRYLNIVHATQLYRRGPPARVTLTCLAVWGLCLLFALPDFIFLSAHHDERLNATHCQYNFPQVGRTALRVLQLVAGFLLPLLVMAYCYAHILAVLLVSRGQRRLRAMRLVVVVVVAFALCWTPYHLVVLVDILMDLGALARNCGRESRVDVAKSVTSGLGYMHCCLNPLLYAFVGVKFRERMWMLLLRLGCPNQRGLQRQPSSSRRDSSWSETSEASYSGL

CXCR4, sequence (P61073 with tags, fused parts or gaps isoform P61073-2 limits assumed): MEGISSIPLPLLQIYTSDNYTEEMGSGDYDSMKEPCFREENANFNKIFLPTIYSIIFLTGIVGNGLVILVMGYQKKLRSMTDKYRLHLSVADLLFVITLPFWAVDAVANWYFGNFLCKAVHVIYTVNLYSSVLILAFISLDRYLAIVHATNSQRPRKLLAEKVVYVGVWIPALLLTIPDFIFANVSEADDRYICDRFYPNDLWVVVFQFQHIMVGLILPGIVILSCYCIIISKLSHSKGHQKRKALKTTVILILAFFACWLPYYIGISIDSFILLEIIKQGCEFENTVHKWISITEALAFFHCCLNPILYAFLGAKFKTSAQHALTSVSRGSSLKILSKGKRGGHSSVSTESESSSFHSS

Molecule | specificity toward CXCR4 expressing membrane compared to non-expressing membrane (CXCR4) | binding to CXCR4 membranes compared to CXCR3 membranes (CXCR3)
238F3: Nanobody (VHH) raised against human CXCR4, SEQ ID NO: 247 (protein, Nanobody, Nanobody constructs or fragments thereof) VHH: EVQLVESGGGLAQAGGSLRLSCAASGRTYAMGWFRQAPGKEREFVTTSRLITDNIIYADSVKGRFTLTRDNGKNTVYLQMDSLKPDDTAVYFCAARQNYSRSVFGAKDYDYWGQGTQVTVSS | high specificity | 
[^125I]-238D2: 125I-labeled Nanobody 238D2 used as radioligand (protein) VHH: EVQLVESGGGLVQTGGSLRLSCAASGFTFSSYAMSWVRQAPGKGLEWVSGIKSSGDSTRYAGSVKGRFTISRDNAKNMLYLQMYSLKPEDTAVYYCAKSRVSRTGLYTYDNRGQGTQVTVSS |  | selectively bind
[^125I]-238D4: 125I-labeled Nanobody 238D4 used as radioligand (protein) VHH: EVQLMESGGGLVQAGGSLRLSCAASGRTFNNYAMGWFRRAPGKEREFVAAITRSGVRSGVSAIYGDSVKDRFTISRDNAKNTLYLQMNSLKPEDTAVYTCAASAIGSGALRRFEYDYSGQGTQVTVSS |  | selectively bind
